Reference: US5837516A, “Subtilisin variants capable of cleaving substrates containing basic residues” (Genentech, Inc., priority 1995, dated 1998)
Blank lines part the entries; values can stand above or below the molecule they belong to. Residues, ends and D or L forms follow the SMILES beside them.

Key:
[1] = biological target: T1, subtilisin BPN' variant N62D/G166D (mature enzyme SEQ ID NO: 72) (Bacillus amyloliquefaciens, UniProt P00782, G273D/N169D); assay: Kinetic analysis, hydrolysis of succinyl-tetrapeptide-pNA substrates; assay type: biochemical
T1 construct: made in house; host or cells: Bacillus subtilis BG2036 (protease-deficient), secreted
T1 sequence (P00782 108-382 N169D/G273D): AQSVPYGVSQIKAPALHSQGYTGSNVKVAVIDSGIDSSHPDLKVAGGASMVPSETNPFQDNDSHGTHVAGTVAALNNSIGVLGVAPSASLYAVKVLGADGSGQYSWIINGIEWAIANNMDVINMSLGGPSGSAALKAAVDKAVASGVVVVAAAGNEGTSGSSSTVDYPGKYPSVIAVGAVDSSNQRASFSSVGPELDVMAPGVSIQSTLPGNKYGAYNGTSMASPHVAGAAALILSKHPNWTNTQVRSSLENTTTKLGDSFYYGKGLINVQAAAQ
Protocol: (§1) The mature N62D/Y104D/G166D variant was purified and analyzed for its ability to hydrolyze several tetrapeptide-pNA substrates.
(§2) Kinetic analysis of WT, N62D/G166D, and N62D/Y104D/G166D subtilisin BPN'
(§3) Subtilisins were assayed by measuring the initial rates of hydrolysis of p-nitroanilide tetrapeptide substrates in 0.4 mL 20 mM Tris-Cl pH 8.2, 4% (v/v) dimethyl sulfoxide at (25±0.2)° C. as described previously (Estell, D. A., Graycar, T. P., Miller, J. V., Powers, D. B., Burnier, J. P., Ng, P. G. and Wells, J. A. (1986)Science 233:659-663). Enzyme concentrations (E)0 were determined spectrophotometrically using E280 nm 0.1%=1.17 (Matsubara, H.; Kasper, C B.; Brown, D. M.; and Smith, E. L. (1965)J. Biol. Chem.,240:1125-1130.), and were typically 5-50 nM in reactions. Initial rates were determined for nine to twelve different substrate concentrations over the range of 0.001-2.0 mM. Plots of initial rates (v) versus substrate concentration (S) were fitted to the Michaelis-Menton equation, [formula] to determine the kinetic constants kcat and Km (Fersht, A. in "Enzyme Structure and Mechanism", Second edition, Freeman and Co., N.Y.) using the program Kaleidagraph (Synergy Software, Reading, Pa.).

[2] = biological target: T2, subtilisin BPN' variant N62D/G166E (Bacillus amyloliquefaciens, UniProt P00782, G273E/N169D); assay: Kinetic analysis, hydrolysis of suc-AAXX-pna substrates; assay type: biochemical; details: Lys-Lys versus Lys-Phe substrate
T2 construct: correct folding and maturation of subtilisin requires autolytic cleavage of its propeptide; made in house; host or cells: Bacillus subtilis BG2036 (protease-deficient), secreted
Protocol: Despite the less than additive effects seen for the two charged substitutions in the S2 site, we decided to combine the best S2 site variant (N62D) with either of the acidic substitutions in the S1 site. The two double mutants, N62D/G166E and N62D/G166D, were analyzed with substrates having the form, suc-AAXX-pna (SEQ ID NO. 71) where XX was either KK (SEQ ID NO. 66), KR (SEQ ID NO. 67), KF (SEQ ID NO. 62), PK (SEQ ID NO. 58), PF (SEQ ID NO. 56) or AF (SEQ ID NO. 63) (FIG. 4). The wild-type preference was AF>PF^~ KF>KK^~ PK>KR, whereas the double mutants had the preference KK>KR>KF>PK^~ AF>PF. […]
as §3, with “Plots of initial rates (v) versus substrate concentration (S) were fitted to the Michaelis-Menton equation, [formula] to determine the kinetic constants kcat and Km (Fersht, A. in "Enzyme Structure and Mechanism", Second edition, Freeman and Co., N.Y.) using the program Kaleidagraph (Synergy Software, Reading, Pa.).” left out

[3] = biological target: T3, subtilisin BPN' variant N62D/Y104D/G166D (SEQ ID NO: 75) (Bacillus amyloliquefaciens, UniProt P00782, G273D/N169D/Y211D); assay: Kinetic analysis, hydrolysis of succinyl-tetrapeptide-pNA substrates; assay type: biochemical; details: relative to succinyl-RAKR-pNA
T3 construct: the mature enzyme +1 to +275; made in house; host or cells: Bacillus subtilis BG2036 (protease-deficient), secreted
T3 sequence (P00782 108-382 N169D/Y211D/G273D): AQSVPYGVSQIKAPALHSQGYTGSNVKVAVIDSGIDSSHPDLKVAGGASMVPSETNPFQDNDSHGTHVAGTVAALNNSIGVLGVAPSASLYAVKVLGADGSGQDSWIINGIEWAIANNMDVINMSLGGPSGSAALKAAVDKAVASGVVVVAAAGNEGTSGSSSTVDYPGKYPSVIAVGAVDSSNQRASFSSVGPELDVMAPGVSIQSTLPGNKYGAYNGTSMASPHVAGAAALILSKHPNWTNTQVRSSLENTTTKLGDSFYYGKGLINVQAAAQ
Protocol: as §1, §2, §3

succinyl-AAKR-pNA = biological target: T4, succinyl-AAKR-pNA
T4 sequence (peptide, N-terminal succinyl; C-terminal p-nitroanilide (pNA)): AAKR

succinyl-AAPF-pNA = biological target: T5, succinyl-AAPF-pNA
T5 sequence (peptide, N-terminal succinyl; C-terminal p-nitroanilide (pNA)): AAPF

[4] = substrate: C[C@H](NC(=O)CCC(=O)O)C(=O)N[C@@H](C)C(=O)N1CCC[C@H]1C(=O)N[C@@H](Cc1ccccc1)C(=O)Nc1ccc([N+](=O)[O-])cc1; assay: Kinetic analysis, hydrolysis of succinyl-tetrapeptide-pNA substrates; assay type: biochemical, Bacillus amyloliquefaciens; details: other: WT, 20 mM Tris-Cl pH 8.2, 4% DMSO, 25 C
Protocol: as §1, §2, §3

[5] = substrate: C[C@H](NC(=O)CCC(=O)O)C(=O)N[C@@H](C)C(=O)N[C@@H](CCCCN)C(=O)N[C@@H](CCCNC(=N)N)C(=O)Nc1ccc([N+](=O)[O-])cc1; assay: as above; assay type: biochemical, Bacillus amyloliquefaciens; details: other: WT, 20 mM Tris-Cl pH 8.2, 4% DMSO, 25 C
Protocol: as §1, §2, §3

T2 sequence (P00782 108-382 N169D/G273E): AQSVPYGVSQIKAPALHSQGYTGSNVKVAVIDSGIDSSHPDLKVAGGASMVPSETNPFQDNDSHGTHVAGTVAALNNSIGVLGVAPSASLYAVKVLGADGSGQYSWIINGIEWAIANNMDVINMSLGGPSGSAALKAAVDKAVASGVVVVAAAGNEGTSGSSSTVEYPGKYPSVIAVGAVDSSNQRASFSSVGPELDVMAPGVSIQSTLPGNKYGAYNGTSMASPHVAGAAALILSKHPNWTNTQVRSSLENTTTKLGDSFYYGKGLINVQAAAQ

Molecule: C[C@H](NC(=O)CCC(=O)O)C(=O)N[C@@H](C)C(=O)N[C@@H](CCCCN)C(=O)N[C@@H](CCCCN)C(=O)Nc1ccc([N+](=O)[O-])cc1 [Lys-Lys substrate] (HELM PEPTIDE1{[O=C(O)CCC(=O)[*:2]].A.A.K.K.[O=[N+]([O-])c1ccc(N[*:1])cc1]}$$$$V2.0)
ratio of catalytic efficiencies, times faster cleaved than the Lys-Phe substrate ([1]; Lys-Lys versus Lys-Phe substrate): 18 times | ratio of catalytic efficiencies, times faster cleaved than the Lys-Phe substrate [2]: about 8 times

Molecule: C[C@H](NC(=O)CCC(=O)O)C(=O)N[C@@H](C)C(=O)N[C@@H](CCCCN)C(=O)N[C@@H](CCCNC(=N)N)C(=O)Nc1ccc([N+](=O)[O-])cc1 [succinyl-AAKR-pNA] (HELM PEPTIDE1{[O=C(O)CCC(=O)[*:2]].A.A.K.R.[O=[N+]([O-])c1ccc(N[*:1])cc1]}$$$$V2.0)
ratio of catalytic efficiency for succinyl-AAKR-pNA versus succinyl-AAPF-pNA [1]: 1.9×10^2 | catalytic efficiency (kcat/Km), fold less efficiently hydrolyzed than succinyl-RAKR-pNA [3]: 60 fold

kcat/Km, hydrolysis of succinyl-tetrapeptide-pNA (succinyl-AAKR-pNA): 1700 M⁻¹ s⁻¹ | kcat/Km, hydrolysis of succinyl-tetrapeptide-pNA (succinyl-AAPF-pNA): 260000 M⁻¹ s⁻¹
B1: subtilisin BPN' from Bacillus amyloliquefaciens, wild type (WT), SEQ ID NO: 90 (Bacillus amyloliquefaciens) (protein)
chain: AQSVPYGVSQIKAPALHSQGYTGSNVKVAVIDSGIDSSHPDLKVAGGASMVPSETNPFQDNNSHGTHVAGTVAALNNSIGVLGVAPSASLYAVKVLGADGSGQYSWIINGIEWAIANNMDVINMSLGGPSGSAALKAAVDKAVASGVVVVAAAGNEGTSGSSSTVGYPGKYPSVIAVGAVDSSNQRASFSSVGPELDVMAPGVSIQSTLPGNKYGAYNGTSMASPHVAGAAALILSKHPNWTNTQVRSSLENTTTKLGDSFYYGKGLINVQAAAQ
notes: correct folding and maturation of subtilisin requires autolytic cleavage of its propeptide
Km [4]: 110 µM | kcat [4]: 29 s⁻¹ | kcat/Km [4]: 260000 M⁻¹ s⁻¹ | Km [5]: 1700 µM | kcat [5]: 2.8 s⁻¹
